Data reported in the supplement of paper PMC9112550, “Optimization of the antimicrobial peptide Bac7 by deep mutational scanning” (BMC Biology, 2022).

Test system: Escherichia coli TOP10
Assay: shrunken log2 fold change of peptide-encoding DNA abundance (4.5 h post-induction vs induction); higher = less antimicrobial activity (less host growth inhibition)
Conditions: time post-induction: 4.5 h; library: site-saturation at positions 5, 18, 19, 20
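Also: peptides expressed intracellularly from a pBAD plasmid library in pooled LB shake-flask culture, induced with 0.3% L-arabinose, DNA abundance read by NGS, three biological replicates, DESeq2 with apeglm shrinkage.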

| Sequence | shrunken log2 fold change |
| --- | --- |
| RRIRHRPPRLPRPRPRPPHQPRP | -0.151 |
| RRIRDRPPRLPRPRPRPIAWPRP | 0.0633 |
| RRIRSRPPRLPRPRPRPHREPRP | -0.14 |
| RRIRTRPPRLPRPRPRPLDCPRP | -0.294 |
| RRIRARPPRLPRPRPRPYMGPRP | 0.0124 |
| RRIRCRPPRLPRPRPRPWRNPRP | -0.157 |
| RRIRWRPPRLPRPRPRPYGIPRP | -0.00133 |
| RRIRYRPPRLPRPRPRPSTLPRP | -0.853 |
| RRIRFRPPRLPRPRPRPYAWPRP | -0.134 |
| RRIRHRPPRLPRPRPRPIRAPRP | 0.0218 |
| RRIRSRPPRLPRPRPRPCGEPRP | 0.385 |
| RRIRFRPPRLPRPRPRPLVCPRP | -0.365 |
| RRIRNRPPRLPRPRPRPNPHPRP | -0.116 |
| RRIRKRPPRLPRPRPRPYRYPRP | -0.14 |
| RRIRSRPPRLPRPRPRPYANPRP | -0.185 |
| RRIRMRPPRLPRPRPRPSAQPRP | 0.623 |
| RRIRARPPRLPRPRPRPLVNPRP | 0.0552 |
| RRIRMRPPRLPRPRPRPMPDPRP | 0.716 |
| RRIRLRPPRLPRPRPRPFEHPRP | 0.0204 |
| RRIRLRPPRLPRPRPRPCEHPRP | -0.00776 |
| RRIRERPPRLPRPRPRPQITPRP | -0.778 |
| RRIRCRPPRLPRPRPRPANLPRP | -0.687 |

| Sequence | shrunken log2 fold change |
| --- | --- |
| RRIRDRPPRLPRPRPRPASYPRP | -0.0767 |
| RRIRERPPRLPRPRPRPHTCPRP | -0.0792 |
| RRIRGRPPRLPRPRPRPTHNPRP | 0.443 |
| RRIRQRPPRLPRPRPRPMGYPRP | -0.655 |
| RRIRRRPPRLPRPRPRPVSPPRP | 0.0657 |
| RRIRFRPPRLPRPRPRPNFFPRP | -0.178 |
| RRIRVRPPRLPRPRPRPNRGPRP | 0.108 |
| RRIRGRPPRLPRPRPRPAMEPRP | 1 |
| RRIRHRPPRLPRPRPRPRTEPRP | 0.218 |
| RRIRERPPRLPRPRPRPVKNPRP | 0.0428 |
| RRIRFRPPRLPRPRPRPDPHPRP | 0.137 |
| RRIRMRPPRLPRPRPRPAAKPRP | 1.26 |
| RRIRQRPPRLPRPRPRPFNSPRP | -0.3 |
| RRIRIRPPRLPRPRPRPWHSPRP | -0.383 |
| RRIRQRPPRLPRPRPRPWKAPRP | -0.112 |
| RRIRARPPRLPRPRPRPQWVPRP | 0.124 |
| RRIRGRPPRLPRPRPRPENHPRP | 0.455 |
| RRIRARPPRLPRPRPRPLETPRP | 0.9 |
| RRIRERPPRLPRPRPRPSQHPRP | -0.49 |
| RRIRWRPPRLPRPRPRPSNWPRP | 0.135 |
| RRIRERPPRLPRPRPRPSATPRP | 0.0731 |
| RRIRKRPPRLPRPRPRPMLWPRP | 0.323 |

| Sequence | shrunken log2 fold change |
| --- | --- |
| RRIRLRPPRLPRPRPRPCDTPRP | -0.131 |
| RRIRWRPPRLPRPRPRPGHPPRP | 0.0932 |
| RRIRDRPPRLPRPRPRPRWCPRP | 0.33 |
| RRIRLRPPRLPRPRPRPFIQPRP | -0.418 |
| RRIRQRPPRLPRPRPRPTSIPRP | -0.18 |
| RRIRSRPPRLPRPRPRPYMWPRP | -0.744 |
| RRIRYRPPRLPRPRPRPYVKPRP | -1.12 |
| RRIRPRPPRLPRPRPRPEPSPRP | 0.314 |
| RRIRNRPPRLPRPRPRPVNGPRP | -0.372 |
| RRIRHRPPRLPRPRPRPKIRPRP | -0.156 |
| RRIRIRPPRLPRPRPRPRMMPRP | -0.293 |
| RRIRNRPPRLPRPRPRPHMAPRP | -0.401 |
| RRIRIRPPRLPRPRPRPLYNPRP | -0.522 |
| RRIRERPPRLPRPRPRPPQMPRP | 0.208 |
| RRIRNRPPRLPRPRPRPWRSPRP | 0.111 |
| RRIRMRPPRLPRPRPRPSECPRP | 0.0809 |
| RRIRERPPRLPRPRPRPKSDPRP | -0.0784 |
| RRIRIRPPRLPRPRPRPITLPRP | -0.237 |
| RRIRRRPPRLPRPRPRPQWMPRP | 0.139 |
| RRIRLRPPRLPRPRPRPYMTPRP | -0.82 |
| RRIRGRPPRLPRPRPRPQTLPRP | 0.614 |
| RRIRSRPPRLPRPRPRPFVGPRP | -0.222 |

| Sequence | shrunken log2 fold change |
| --- | --- |
| RRIRFRPPRLPRPRPRPDLDPRP | -0.0913 |
| RRIRLRPPRLPRPRPRPHDYPRP | -0.398 |
| RRIRGRPPRLPRPRPRPRDIPRP | 0.373 |
| RRIRGRPPRLPRPRPRPCGTPRP | 1.44 |
| RRIRRRPPRLPRPRPRPHSRPRP | 0.163 |
| RRIRHRPPRLPRPRPRPMICPRP | -0.163 |
| RRIRGRPPRLPRPRPRPTLFPRP | 0.824 |
| RRIRLRPPRLPRPRPRPTEIPRP | -0.15 |
| RRIRDRPPRLPRPRPRPNKMPRP | -0.195 |
| RRIRVRPPRLPRPRPRPDNAPRP | -0.501 |
| RRIRDRPPRLPRPRPRPCENPRP | 0.0231 |
| RRIRHRPPRLPRPRPRPGWLPRP | 0.0986 |
| RRIRVRPPRLPRPRPRPVNRPRP | -0.142 |
| RRIRYRPPRLPRPRPRPTQAPRP | -0.00154 |
| RRIRMRPPRLPRPRPRPSLYPRP | -0.126 |
| RRIRQRPPRLPRPRPRPDFRPRP | 0.0259 |
| RRIRNRPPRLPRPRPRPRPTPRP | 0.658 |
| RRIRVRPPRLPRPRPRPMCAPRP | 0.137 |
| RRIRKRPPRLPRPRPRPIYLPRP | -0.305 |
| RRIRIRPPRLPRPRPRPSMYPRP | -1.53 |
| RRIRGRPPRLPRPRPRPSDRPRP | 0.137 |
| RRIRMRPPRLPRPRPRPTVDPRP | 0.00715 |

| Sequence | shrunken log2 fold change |
| --- | --- |
| RRIRHRPPRLPRPRPRPVDLPRP | -0.314 |
| RRIRARPPRLPRPRPRPKQIPRP | 0.146 |
| RRIRGRPPRLPRPRPRPSQIPRP | -0.111 |
| RRIRKRPPRLPRPRPRPKYIPRP | -0.0449 |
| RRIRVRPPRLPRPRPRPMRPPRP | 0.544 |
| RRIRCRPPRLPRPRPRPDFYPRP | -0.629 |
| RRIRIRPPRLPRPRPRPIYAPRP | -0.758 |
| RRIRHRPPRLPRPRPRPSGWPRP | -0.291 |
| RRIRHRPPRLPRPRPRPQFDPRP | 0.0132 |
| RRIRIRPPRLPRPRPRPALLPRP | 0.178 |
| RRIRNRPPRLPRPRPRPGKPPRP | -0.117 |
| RRIRKRPPRLPRPRPRPRDNPRP | 0.15 |
| RRIRHRPPRLPRPRPRPFRVPRP | -0.371 |
| RRIRARPPRLPRPRPRPYQIPRP | -0.385 |
| RRIRDRPPRLPRPRPRPWFEPRP | -0.175 |
| RRIRARPPRLPRPRPRPAWPPRP | 0.582 |
| RRIRWRPPRLPRPRPRPEHAPRP | 0.921 |
| RRIRNRPPRLPRPRPRPKFQPRP | -0.505 |
| RRIRDRPPRLPRPRPRPEGPPRP | 1.51 |
| RRIRHRPPRLPRPRPRPFVKPRP | -1.48 |
| RRIRPRPPRLPRPRPRPLQSPRP | 0.0308 |
